The values below come from US5550213, “Inhibitors of urokinase plasminogen activator” (Rutgers, The State University of New Jersey, dated 1996).

As a reminder, the Ki is the equilibrium dissociation constant of an inhibitor or competing ligand from its target. A low value points to tighter binding.

The target in assay [1] is T1, Urokinase plasminogen activator (Homo sapiens (Human), UniProt P00749). As to the kind of experiment: inhibition of UK activity; Ki by non-linear regression (Enzfitter) of free enzyme versus inhibitor concentration. The method, then:
Fractional enzyme activities for each inhibitor-UK interaction of the above discussed inhibitors were determined by the assay method of Empie and Laskowski (Empie, M. W. et al., *Biochem.* 21:2274–2284 (1982)), as adapted from Green and Work (Green, N. M. et al., Biochem. J. 54:347–352 (1953)). The concentration of UK used for these reactions was 35 nM. The reactions were carried out in Buffer C. […] These five mutants include the four detailed above (88, 89, 80, AND 91), and also a mutant with arginine at the P1 site of OM3TKY (P1-Arg). […] The values for PSTI, PAI-1, PAI-2, and Nexin-1 were obtained from Turpeinen, U. et al. (*Biochem. J.* 254:911–914 (1988)), Kruithof, C.K.O. et al. (Thromb.-Haemost. 55::65–68 (1986)), Christensen, U. et al. (Thromb.-Haemost. 48:24–26 (1982)), and Stein, P. E. et al. (*Nature* 347:99–102 (1990)), respectively.
K_i values for the wild-type and mutant inhibitors versus urokinase were also determined by non-linear regression of the following equation: […]
The non-linear regression was done using the program Enzfitter, by Robin Leatherbarrow. E_o represents a total enzyme concentration in the reaction, I_o represents total inhibitor concentration, E is the free enzyme for a given inhibitor concentration and K_i is the equilibrium constant for the inhibitor. E and K_i are the unknowns in the equation, and are solved for during the regression analysis. Enzyme and inhibitor concentrations used were determined as mentioned above.

For assay [2], the target named is T1, Urokinase plasminogen activator. Kind of assay: inhibition of UK (35 nM) activity on S-2288; Ki as slope of [I]o/(1-a) vs. 1/a.

B1: The PAI-2 derived mutant, 88 (designed binder)
chain: VDCSEYPKPACGRTGHPLCGSDNKTYGNKCNFCNAVVESNGTLTLSHFGKC
On to B1, for which the inhibition constant Ki worked out at 67.6 nM in assay [1] and 40 nM in assay [2].

B2: The Nexin-1 derived mutant, 91 (designed binder)
chain: VDCSEYPKPACARSSAPLCGSDNKTYGNKCNFCNAVVESNGTLTLSHFGKC
As for B2, the Ki in assay [1] worked out at 505 nM; in assay [2], 120 nM.

B3: The Plasminogen derived mutant, 90 (designed binder)
chain: VDCSEYPKPACGRVVGPLCGSDNKTYGNKCNFCNAVVESNGTLTLSHFGKC
As to B3, the values for the inhibition constant (Ki) in assay [1] and in assay [2] were 51.3 nM and 106 nM, respectively.

B4: The PAI-1 derived mutant, 89 (designed binder)
chain: VDCSEYPKPACARMAAPLCGSDNKTYGNKCNFCNAVVESNGTLTLSHFGKC
In the case of B4, the values for the Ki in assay [1] and in assay [2] were 35.9 nM and 0.31 nM, respectively.
